The test addresses HLA-A2 Ag on A375SM melanoma cells (human). Nature of the test: cell-based or functional assay.

Substance anti-HLA-A2 mAb MA2.1 (antibody) registered an inhibition of lysis of A375SM melanoma cells by I-100-CTL and I-102-CTL (51Cr release assay) of more than 50%.

The values are drawn from patent US20060141532A1.
